Laboratory results: patent US20200347143A1 (GLENMARK PHARMACEUTICALS S A, published 2020)

T1: recombinant DR3 molecule (R&D) (UniProt Q93038 25-199, limits assumed)
T1 sequence (looked up): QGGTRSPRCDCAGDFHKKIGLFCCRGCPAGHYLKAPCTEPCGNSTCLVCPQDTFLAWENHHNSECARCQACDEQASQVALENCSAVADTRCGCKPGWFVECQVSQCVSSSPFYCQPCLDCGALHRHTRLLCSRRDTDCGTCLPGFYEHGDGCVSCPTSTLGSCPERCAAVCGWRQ

T2: recombinant DR6 molecule (R&D) (UniProt O75509 42-349, limits assumed)
T2 sequence (looked up): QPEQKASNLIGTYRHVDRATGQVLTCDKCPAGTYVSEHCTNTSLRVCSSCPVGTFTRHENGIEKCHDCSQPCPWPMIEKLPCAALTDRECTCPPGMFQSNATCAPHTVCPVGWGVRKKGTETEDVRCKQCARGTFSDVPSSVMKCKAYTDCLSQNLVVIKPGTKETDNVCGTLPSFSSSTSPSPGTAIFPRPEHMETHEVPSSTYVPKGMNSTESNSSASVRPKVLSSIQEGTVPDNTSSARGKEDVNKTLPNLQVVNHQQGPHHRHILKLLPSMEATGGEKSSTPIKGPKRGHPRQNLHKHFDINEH

T3: recombinant GITR molecule (R&D) (UniProt Q9Y5U5 26-161)
T3 sequence (looked up): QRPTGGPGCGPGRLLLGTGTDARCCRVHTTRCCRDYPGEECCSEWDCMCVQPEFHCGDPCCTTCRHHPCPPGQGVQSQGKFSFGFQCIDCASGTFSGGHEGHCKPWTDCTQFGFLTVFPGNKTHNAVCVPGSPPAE

T4: human OX40 on cells (human, UniProt P43489 29-277)
T4 construct: whole, on cells; also called OX40 on HPB-ALL cells
T4 sequence (looked up): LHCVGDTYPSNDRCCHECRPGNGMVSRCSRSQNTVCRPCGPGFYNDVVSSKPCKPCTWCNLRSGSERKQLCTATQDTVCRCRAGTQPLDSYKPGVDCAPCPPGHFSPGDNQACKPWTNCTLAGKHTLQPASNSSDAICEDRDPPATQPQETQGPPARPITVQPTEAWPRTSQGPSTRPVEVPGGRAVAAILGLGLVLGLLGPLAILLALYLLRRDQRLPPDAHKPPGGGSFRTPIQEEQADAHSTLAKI

T5: recombinant human OX40-his protein (human, UniProt P43489 29-214)
T5 construct: Secreted via the native signal peptide, which lies within residues 1-214; also called Human OX40R-His; histidine tagged human OX40 receptor extracellular domain
T5 sequence: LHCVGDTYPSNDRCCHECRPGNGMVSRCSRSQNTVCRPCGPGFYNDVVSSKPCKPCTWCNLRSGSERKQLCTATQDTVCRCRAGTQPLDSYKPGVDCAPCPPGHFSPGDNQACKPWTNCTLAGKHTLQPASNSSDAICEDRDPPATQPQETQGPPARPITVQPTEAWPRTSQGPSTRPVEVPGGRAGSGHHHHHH

B1: 2H6 IgG1 (antibody)
heavy: not shown
light: DIQLTQSPSSLSASVGDRVTITCRASESVDNYGISFMNWFQQKPGKAPKLLIYAASNQKSGVPSRFSGSGSGTDFTLTISSLQPEDFATYFCQQSKEVPLTFGQGTKVEIKRTVAAPSVFIFPPSDEQLKSGTASVVCLLNNFYPREAKVQWKVDNALQSGNSQESVTEQDSKDSTYSLSSTLTLSKADYEKHKVYACEVTHQGLSSPVTKSFNRGEC
B2: Fc-7H11 scFv/2H6 Fab (other)
heavy 1: HTCPPCPAPEAAGGPSVFLFPPKPKDTLMISRTPEVTCVVVDVSHEDPEVQFKWYVDGVEVHNAKTKPREEQYNSTFRVVSVLTVLHQDWLNGKEYKCKVSNKALPAPIEKTISKTKGQPREPAVYTLPPSREEMTKNQVKLVCLVTGFYPSDIAVEWESSGQPENNYYTTPPMLDSDGSFSLVSWLNVDKSRWQQGNIFSCSVMHEALHNRFTQKSLSLSPGGGGGTQVQLVQSGAEVKKPGASVKVSCKASGYTFTRYYMHWVRQAPGQCLEWMGWIYPGEGSTKYAQKFQGRVTMTRDTSISTAYMELSRLRSDDTAVYYCAREYGNYDYWGQGTLVTVSSGGGGSGGGGSGGGGSDIVMTQSPDSLAVSLGERATINCKSSQSLLNSGNQKNYLAWYQQKPGQPPKLLIYGASTRESGVPDRFSGSGSGTDFTLTISSLQAEDVAVYYCQNDHSYPYTFGCGTKLEIL
heavy 2: HTCPPCPAPEAAGGPSVFLFPPKPKDTLMISRTPEVTCVVVDVSHEDPEVKFNWYVDGVEVHNAKTKPREEQYNSTYRVVSVLTVLHQDWLNGKEYKCKVSNKALPAPIEKTISKAKGQPREPEVATFPPSRDELTKNQVTLVCLVTGFYPSDIAVEWESNGQPENNYKTDPPLLESDGSFALSSRLRVDKSRWQQGNVFSCSVMHEALHNHYTQKSLSLSPGGGGGTEVQLVESGGGLVQPGGSLRLSCAVSGYSITSDYAWNWIRQAPGKGLEWMGYISYSGSTAYNPSLKSRITISRDTSKNTFYLQMNSLRAEDTAVYYCARGPYNYLAYWGQGTLVTVSSASTKGPSVFPLAPSSKSTSGGTAALGCLVKDYFPEPVTVSWNSGALTSGVHTFPAVLQSSGLYSLSSVVTVPSSSLGTQTYICNVNHKPSNTKVDKKVEPKSC
light: B1 light
notes: N-terminal Fabs removed by digestion; also called Fc-2H6 Fab/7H11 scFv; purified digestion product of Tetra-20
B3: pab1949 IgG1 (antibody, V domains shown)
VH: EVQLVESGGGLVQPGGSLKLSCAASGFTFSGSAMHWVRQASGKCLEWVGRIRSKANSYATAYAASVKGRFTISRDDSKNTAYLQMNSLKTEDTAVYYCTSGIYDSSGYDYWGQGTLVTVSS
VL: not shown
B4: mouse 2H6 antibody (hybridoma 2H6) (antibody, V domains shown)
VH: DVQLQESGPGLVKPSQSLSLTCTVTGYSITSDYAWNWIRQFPGNKLEWMGYISYSGSTAYNPSLKSRISITRDTSKNQFFLQLNSVTTEDTATYYCARGPYNYLAYWGQGTLVTVSS
VL: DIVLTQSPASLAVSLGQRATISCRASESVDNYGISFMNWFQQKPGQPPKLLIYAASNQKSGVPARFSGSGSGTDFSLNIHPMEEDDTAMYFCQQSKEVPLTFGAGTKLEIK
notes: also called mouse antibody 2H6
B5: OX40-CRD-Avi-his (receptor)
chain: LHCVGDTYPSNDRCCHECRPGNGMVSRCSRSQNTVCRPCGPGFYNDVVSSKPCKPCTWCNLRSGSERKQLCTATQDTVCRCRAGTQPLDSYKPGVDCAPCPPGHFSPGDNQACKPWTNCTLAGKHTLQPASNSSDAICEDRDGLNDIFEAQKIEWHEHHHHHH
notes: limits of the construct not described

Columns and labels:
rat OX40-Fc = rat OX40-Fc (rat); experiment: ELISA on coated rat OX40-Fc
rat OX40-Fc (rat), sequence (chain, as listed by the source limits assumed): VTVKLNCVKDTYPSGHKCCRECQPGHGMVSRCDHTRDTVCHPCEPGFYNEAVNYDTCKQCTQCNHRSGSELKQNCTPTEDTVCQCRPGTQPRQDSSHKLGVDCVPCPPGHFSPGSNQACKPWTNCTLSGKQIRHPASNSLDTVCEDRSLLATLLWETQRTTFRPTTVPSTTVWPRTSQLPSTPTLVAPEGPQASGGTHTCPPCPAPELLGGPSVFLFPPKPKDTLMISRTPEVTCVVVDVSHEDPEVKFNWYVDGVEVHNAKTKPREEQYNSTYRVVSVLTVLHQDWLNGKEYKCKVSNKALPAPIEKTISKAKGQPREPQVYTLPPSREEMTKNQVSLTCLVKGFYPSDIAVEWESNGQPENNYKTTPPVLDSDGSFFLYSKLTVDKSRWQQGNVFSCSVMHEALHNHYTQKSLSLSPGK
Description: (§1) These constructs were expressed in HEK293-EBNA1 cells and purified using protein A. Then, human and rat OX40-Fc were tested in ELISA and Biacore to determine antibody cross-reactivity. For the ELISA, 96 well-microtiter plates (Costar USA, distributor VWR AG, Nyon, Switzerland) were coated with 100 μl of recombinant human or rat OX40-Fc at 2 μg/ml in PBS. Plates were incubated overnight at 4° C. and were then blocked with PBS 2% BSA (Bovine Serum Albumine, PAA Laboratories, Pasching, Austria) at room temperature (RT) for one hour. The blocking solution was removed and the purified antibodies were added at 10 μg/ml in PBS 2% BSA. The plates were incubated at RT for 1 hour, then washed 5 times with PBS 0.01% Tween-20 (Sigma-Aldrich Chemie GmbH, Buchs, Switzerland). […] Plates were incubated for 1 hour at RT, washed 5 times with PBS 0.01% Tween-20 and the TMB substrate (Bio-rad Laboratories AG, Reinach, Switzerland) was added to the plates and the reaction stopped after 5 minutes by adding H₂SO₄. Absorbance was then read at 450 nm by a microplate reader (Biotek, USA; distributor: WITTEC AG, Littau, Switzerland). Biacore experiments were specifically conducted with Hexa-hzG3V9 and Hexa-hz1D10v1 which are dAb-Fc fusion proteins. […] Binding of human and cyno OX40-Fc molecules was determined by successively injecting these proteins on the 4 flow-paths (flow-path 1 and 3 being used as references) at a concentration of 200 nM and a flow rate of 30 uL/min for 240 seconds. Regeneration between the two injections was done using 3M MgCl2, at 30 uL/min for 60 seconds. Using these two approaches, human/rat OX40 binding was assessed (table 16).

human OX40-Fc = biological target: T6, human OX40-Fc (human); experiment: ELISA on coated human OX40-Fc, antibody 10 µg/ml
T6 construct: also called recombinant human OX40-Fc; human OX40 (HHHH)
Description: as §1

[1] = biological target: T1, recombinant DR3 molecule (R&D); experiment: direct ELISA on coated recombinant DR3, detection streptavidin-HRP, absorbance 450 nm [panel DR3]
Description: (§2) FIG. 13. A dose-response of various antibodies was incubated on various receptors, members of Tumor Necrosis Factor Receptor family, then detected with Streptavidin coupled with Horseradish Peroxidase enzyme. […] Each data point is the mean of duplicate values except for control curves that were performed in simplicate.
(§3) The experiment was conducted following the same protocol than previously described. […] These molecules were all coated at 2 μg/ml in PBS overnight at 4° C.

[2] = biological target: T2, recombinant DR6 molecule (R&D); experiment: direct ELISA on coated recombinant DR6, detection streptavidin-HRP, absorbance 450 nm [panel DR6]
Description: as §2, §3

[3] = biological target: recombinant CD40 molecule (R&D) (UniProt P25942 21-193); experiment: direct ELISA on coated recombinant CD40, detection streptavidin-HRP, absorbance 450 nm [panel CD40]
recombinant CD40 molecule (R&D), sequence (P25942 21-193 limits assumed): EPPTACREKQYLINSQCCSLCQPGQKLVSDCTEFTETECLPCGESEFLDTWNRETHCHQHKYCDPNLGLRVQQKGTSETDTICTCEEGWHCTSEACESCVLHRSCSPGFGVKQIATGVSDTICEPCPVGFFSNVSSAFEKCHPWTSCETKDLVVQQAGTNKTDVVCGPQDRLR
Description: as §2, §3

[4] = biological target: T3, recombinant GITR molecule (R&D); experiment: direct ELISA on coated recombinant GITR, detection streptavidin-HRP, absorbance 450 nm [panel GITR]
Description: as §2, §3

human OX40 on cells [5] = biological target: T4, human OX40 on cells; experiment: flow cytometry on JURKAT-NFkB-OX40 cells, detection anti-human Fc PE, geometric mean of fluorescence intensity
chiOX40R HHRH-Fc = biological target: T7, chiOX40R HHRH-Fc (human/rat chimera; human); experiment: SPR, chimera immobilised (3000 RU), fragment injected at 200 nM
T7 construct: also called chiOX40R-Fc HHRH; chiOX40R OX40 HHRH-Fc
T7 sequence (chain, as listed by the source): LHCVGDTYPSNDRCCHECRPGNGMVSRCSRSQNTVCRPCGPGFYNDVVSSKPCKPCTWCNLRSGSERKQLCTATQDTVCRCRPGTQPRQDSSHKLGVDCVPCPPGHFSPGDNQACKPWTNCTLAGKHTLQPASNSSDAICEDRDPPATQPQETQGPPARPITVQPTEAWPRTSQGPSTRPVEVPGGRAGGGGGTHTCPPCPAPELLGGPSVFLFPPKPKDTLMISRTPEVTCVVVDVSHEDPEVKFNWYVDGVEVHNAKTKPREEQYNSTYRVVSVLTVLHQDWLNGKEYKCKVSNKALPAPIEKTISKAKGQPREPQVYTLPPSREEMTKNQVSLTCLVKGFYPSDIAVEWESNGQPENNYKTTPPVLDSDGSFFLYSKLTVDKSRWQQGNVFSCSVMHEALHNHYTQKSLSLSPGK
Description: A second injection was then performed using HBS-EP buffer for 3 min followed by 5 min of dissociation. Regeneration between the injections was done using glycine pH1.5 buffer for 1 min (FIG. 21 and table 23).

human OX40 on cells [6] = biological target: T4, human OX40 on cells; experiment: cell-based or functional assay
OX40-CRD-Avi-his = biological target: B5; experiment: SPR, antibody captured by anti-human IgG Fc, hsOX40_CRD_Avi_His injected
Description: (§4) Dilution series of hsOX40_CRD_Avi_His (SEQ ID NO: 159) were then injected.

[7] = biological target: T5, recombinant human OX40-his protein; experiment: direct ELISA on coated OX40-his
Description: Plates were incubated overnight at 4° C. and were then blocked with PBS 2% BSA (Bovine Serum Albumine, PAA Laboratories, Pasching, Austria) at room temperature (RT) for one hour. […] Absorbance was then read at 450 nm by a microplate reader (Biotek, USA; distributor: WITTEC AG, Littau, Switzerland).

[8] = biological target: pab1949 scFv fused in C-terminus (Fc fragment after digestion); experiment: SPR, Fc-scFv fragment captured by anti-human IgG Fc, OX40-CRD-Avi-his injected
Description: The antibody/protease mixture was incubated over night at 37° C. […] After each binding event, the surface was regenerated with 10 μl of MgCl2 (3M) buffer. Experimental data were processed using a 1:1 Langmuir model with local Rmax. The dissociation time was about 7 min.
as §4

Binder: B1
binding result (rat OX40-Fc): no binding (tested: 10 µg/ml)
binding result (human OX40-Fc): binds
binding result [1]: no binding (tested: 10 µg/ml)
binding result [2]: no binding (tested: 10 µg/ml)
binding result [3]: no binding (tested: 10 µg/ml)
binding result [4]: no binding (tested: 10 µg/ml)
EC50 (read off the curve) (human OX40 on cells [5]): ~0.2 µg/mL

Binder: B2
response units (chiOX40R HHRH-Fc): 100 RU

Binder: B3
% donor responder (>2), SEB assay, IL-2 release (human OX40 on cells [6]): 80%
Mean, normalized IL-2 release, SEB assay (human OX40 on cells [6]): 4.74
binding result (rat OX40-Fc): no binding (tested: 10 µg/ml)
Kd (OX40-CRD-Avi-his): 304 nM

Binder: B4
binding result [7]: binds

Binder: B5
Kd [8]: 460 nM
